The values below come from publication PMC11257983 (2024).

Sequences and labels used below:
B1: Flag-CNK^2–549 [Drosophila] / Myc-MEK [Drosophila] (parent)
chain 1: MSKNKLNLVLPPVNTEATVAAATVAPTPPFKTPSGTDTHSLLGKPKTSIDALTETLEGLDMGDTERKRIKMFLSQKEKIGELSDEDLEKLGELGSGNGGVVMKVRHTHTHLIMARKLIHLEVKPAIKKQILRELKVLHECNFPHIVGFYGAFYSDGEISICMEYMDGGSLDLILKRAGRIPESILGRITLAVLKGLSYLRDNHAIIHRDVKPSNILVNSSGEIKICDFGVSGQLIDSMANSFVGTRSYMSPERLQGTHYSVQSDIWSLGLSLVEMAIGMYPIPPPNTATLESIFADNAEESGQPTDEPRAMAIFELLDYIVNEPPPKLEHKIFSTEFKDFVDICLKKQPDERADLKTLLSHPWIRKAELEEVDISGWVCKTMDLPPSTPKRNTSPN
chain 2: AYINIAEWTPDQVTDWIKGLDESMKGYLYEFSKQEIGGRALLNIRPYELENLGMLRIGHQEIVLEAVENLRNFHYHLKNDNLQFMALHVATAAKNLHRELARNHAESTKIDTRILHDITRTIATLKPLVGSLERTPFRKQEMYREYCGNVLKCGLELATIAHRDRFALQPVPAIRQSAERLENLANFVIQDISDPMVLQPASLNLVTLKKRESELGFNIESSYNGIHRVTDIKYNSPAHNSGKIEDGDEIVQINYQTVVGWQHRTVLEHLREALPDVVLTVKKRPKHTKMFGQIYMQPYRLPSKKRNMAARWAAQMPSPRAAFLTLDTEQLATGGTGSAVPDPSKSLSSEKREVLTKANPVSSASDSDSSCSDIPTPTDPKLAAREIRLYYPKPRALLQRRNTICGCEYLSLKNSDLVVPSWHERKPGIGSPTNCDPGSPSIRDKSISFGYGLEMAARPTTCIGIAGDTSTDKARRMFHEARKLKQLTEDSQREFLVDRYKPGVSKVVRFDAKEDYVMKNEKFICNVENTILETFEPIPFADEGDEDA

The variants in the assay derive from B1. Description: GST pull-down, immunoblot quantification. The following applies: with Myc-MEK [Drosophila], S2 cells, captured via GST-HYP, parent: 1. A general note: A western blot detects proteins with antibodies after separation by electrophoresis.
Setting [1] is: Flag-CNK2–549, V5-KSR, GST-HYP co-expressed, anti-Myc (MEK) blot.
Setting [2] is: GST-HYP + RRKM (Ha-RASV12, Pyo-RAF, V5-KSR, Myc-MEK) co-expressed, anti-MEK blot.
[3] abbreviates: GST-HYP, V5-KSR, Myc-MEK co-expressed, anti-MEK blot.

Regarding chain 2 AYINIAEWTPDQVTDWIKGLDESMKGYLYEFSKQEIGGRALLNIRPYELENLGMLRIGHQEIVLEAVENLRNFHRHLKNDNLQFMALHVATAAKNLHRELARNHAESTKIDTRILHDITRTIATLKPLVGSLERTPFRKQEMYREYCGNVLKCGLELATIAHRDRFALQPVPAIRQSAERLENLANFVIQDISDPMVLQPASLNLVTLKKRESELGFNIESSYNGIHRVTDIKYNSPAHNSGKIEDGDEIVQINYQTVVGWQHRTVLEHLREALPDVVLTVKKRPKHTKMFGQIYMQPYRLPSKKRNMAARWAAQMPSPRAAFLTLDTEQLATGGTGSAVPDPSKSLSSEKREVLTKANPVSSASDSDSSCSDIPTPTDPKLAAREIRLYYPKPRALLQRRNTICGCEYLSLKNSDLVVPSWHERKPGIGSPTNCDPGSPSIRDKSISFGYGLEMAARPTTCIGIAGDTSTDKARRMFHEARKLKQLTEDSQREFLVDRYKPGVSKVVRFDAKEDYVMKNEKFICNVENTILETFEPIPFADEGDEDA [chain 2 Y75R], under setting [1], the ratio to parent is 0.68.
For the variant chain 2 AYINIAEWTPDQVTDWIKGLDESMKGYLYEFSKQEIGGRALLNIRPYELENLGMLRIGHQEIVLEAVENLRNFHYHLKNDNLQFMALHVATAAKNLHEELARNHAESTKIDTRILHDITRTIATLKPLVGSLERTPFRKQEMYREYCGNVLKCGLELATIAHRDRFALQPVPAIRQSAERLENLANFVIQDISDPMVLQPASLNLVTLKKRESELGFNIESSYNGIHRVTDIKYNSPAHNSGKIEDGDEIVQINYQTVVGWQHRTVLEHLREALPDVVLTVKKRPKHTKMFGQIYMQPYRLPSKKRNMAARWAAQMPSPRAAFLTLDTEQLATGGTGSAVPDPSKSLSSEKREVLTKANPVSSASDSDSSCSDIPTPTDPKLAAREIRLYYPKPRALLQRRNTICGCEYLSLKNSDLVVPSWHERKPGIGSPTNCDPGSPSIRDKSISFGYGLEMAARPTTCIGIAGDTSTDKARRMFHEARKLKQLTEDSQREFLVDRYKPGVSKVVRFDAKEDYVMKNEKFICNVENTILETFEPIPFADEGDEDA [chain 2 R98E], under setting [1], the ratio to parent came to 1.12.
chain 2 AYINIAEWTPDQVTDWIKGLDESMKGYLYEFSKQEIGGRALLNIRPYELENLGMLRIGHQEIVLEAVENLRNFHYHLKNDNLQFMALHVATAAKNLHRELARNHAESTKIDTRILHDITRTIATLKPLVGSLERTPFRKQEMYREYCGNVLKCGLELATIAHRDRFALQPVPAIRQSAERLENLANFVIQDIADPMVLQPASLNLVTLKKRESELGFNIESSYNGIHRVTDIKYNSPAHNSGKIEDGDEIVQINYQTVVGWQHRTVLEHLREALPDVVLTVKKRPKHTKMFGQIYMQPYRLPSKKRNMAARWAAQMPSPRAAFLTLDTEQLATGGTGSAVPDPSKSLSSEKREVLTKANPVSSASDSDSSCSDIPTPTDPKLAAREIRLYYPKPRALLQRRNTICGCEYLSLKNSDLVVPSWHERKPGIGSPTNCDPGSPSIRDKSISFGYGLEMAARPTTCIGIAGDTSTDKARRMFHEARKLKQLTEDSQREFLVDRYKPGVSKVVRFDAKEDYVMKNEKFICNVENTILETFEPIPFADEGDEDA [chain 2 S193A]: the ratio to parent under setting [2] stood at 1.01 and the ratio to parent under setting [3] was determined as 1.09.
The like results for chain 2 AYINIAEWTPDQVTDWIKGLDESMKGYLYEFSKQEIGGRALLNIRPYELENLGMLRIGHQEIVLEAVENLRNFHYHLKNDNLQFMALHVATAAKNLHRELARNHAESTKIDTRILHDITRTIATLKPLVGSLERTPFRKQEMYREYCGNVLKCGLELATIAHRDRFALQPVPAIRQSAERLENLANFVIQDISDPEVLQPASLNLVTLKKRESELGFNIESSYNGIHRVTDIKYNSPAHNSGKIEDGDEIVQINYQTVVGWQHRTVLEHLREALPDVVLTVKKRPKHTKMFGQIYMQPYRLPSKKRNMAARWAAQMPSPRAAFLTLDTEQLATGGTGSAVPDPSKSLSSEKREVLTKANPVSSASDSDSSCSDIPTPTDPKLAAREIRLYYPKPRALLQRRNTICGCEYLSLKNSDLVVPSWHERKPGIGSPTNCDPGSPSIRDKSISFGYGLEMAARPTTCIGIAGDTSTDKARRMFHEARKLKQLTEDSQREFLVDRYKPGVSKVVRFDAKEDYVMKNEKFICNVENTILETFEPIPFADEGDEDA [chain 2 M196E] were, in that order, 0.28 and 0.23.
Take chain 2 AYINIAEWTPDQVTDWIKGLDESMKGYLYEFSKQEIGGRALLNIFPYELENLGMLRIGHQEIVLEAVENLRNFHYHLKNDNLQFMALHVATAAKNLHRELARNHAESTKIDTRILHDITRTIATLKPLVGSLERTPFRKQEMYREYCGNVLKCGLELATIAHRDRFALQPVPAIRQSAERLENLANFVIQDISDPMVLQPASLNLVTLKKRESELGFNIESSYNGIHRVTDIKYNSPAHNSGKIEDGDEIVQINYQTVVGWQHRTVLEHLREALPDVVLTVKKRPKHTKMFGQIYMQPYRLPSKKRNMAARWAAQMPSPRAAFLTLDTEQLATGGTGSAVPDPSKSLSSEKREVLTKANPVSSASDSDSSCSDIPTPTDPKLAAREIRLYYPKPRALLQRRNTICGCEYLSLKNSDLVVPSWHERKPGIGSPTNCDPGSPSIRDKSISFGYGLEMAARPTTCIGIAGDTSTDKARRMFHEARKLKQLTEDSQREFLVDRYKPGVSKVVRFDAKEDYVMKNEKFICNVENTILETFEPIPFADEGDEDA [chain 2 R45F]: the ratio to parent under setting [1] is 1.01.
For chain 2 AYINIAEWTPDQVTDWIKGLDESMKGYLYEFSKQEIGGRALLNIRPYELENLGMLRIGHQEIVLEAVENLRNFHYHLKNDNLQFMALHVATAAKNLHRELARNHAESTKIDTRILHDITRTIATLKPLVGSLERTPFRKQEMYREYCGNVLKCGLELATIAHRDRFALQPVPAIRQSAERLENLANFVIQDISKPMVLQPASLNLVTLKKRESELGFNIESSYNGIHRVTDIKYNSPAHNSGKIEDGDEIVQINYQTVVGWQHRTVLEHLREALPDVVLTVKKRPKHTKMFGQIYMQPYRLPSKKRNMAARWAAQMPSPRAAFLTLDTEQLATGGTGSAVPDPSKSLSSEKREVLTKANPVSSASDSDSSCSDIPTPTDPKLAAREIRLYYPKPRALLQRRNTICGCEYLSLKNSDLVVPSWHERKPGIGSPTNCDPGSPSIRDKSISFGYGLEMAARPTTCIGIAGDTSTDKARRMFHEARKLKQLTEDSQREFLVDRYKPGVSKVVRFDAKEDYVMKNEKFICNVENTILETFEPIPFADEGDEDA [chain 2 D194K], the ratio to parent under setting [2] came out at 0.05 and the ratio to parent under setting [3] worked out at 0.05.
As for chain 2 AYINIAEWTPDQVTDWIKGLDESMKGYLYEFSKQEIGGRALLNIRPYELENLGMLRIGHQEIVLEAVENLRNFHYHLKNDNLQFMALHVATAAKNLHRELARNHAESTKIDTRILHDITRTIATLKPLVGSLERTPFRKQEMYREYCGNVLKCGLELATIAHRDRFALQPVPAIRQSAERLENLANFVIQDISDPMVLAPASLNLVTLKKRESELGFNIESSYNGIHRVTDIKYNSPAHNSGKIEDGDEIVQINYQTVVGWQHRTVLEHLREALPDVVLTVKKRPKHTKMFGQIYMQPYRLPSKKRNMAARWAAQMPSPRAAFLTLDTEQLATGGTGSAVPDPSKSLSSEKREVLTKANPVSSASDSDSSCSDIPTPTDPKLAAREIRLYYPKPRALLQRRNTICGCEYLSLKNSDLVVPSWHERKPGIGSPTNCDPGSPSIRDKSISFGYGLEMAARPTTCIGIAGDTSTDKARRMFHEARKLKQLTEDSQREFLVDRYKPGVSKVVRFDAKEDYVMKNEKFICNVENTILETFEPIPFADEGDEDA [chain 2 Q199A], the ratio to parent runs as follows: under setting [2], 0.68; under setting [3], 0.62.
